Data published in patent publication US20140073761A1, “CONJUGATES CONTAINING HYDROPHILIC SPACER LINKERS” (priority 2007, published 2014).
Read-outs that look alike come from different tables or passages of the source. Marks after values point to notes of the source that are not given here.

Key:
[1] = design: AUC (DAVLBH biliary excretion): unit not given beside the values; conditions: rat, in vivo, iv
[2] = Experimental: Toxicity as Measured by Weight Loss. The percentage weight change was determined in mice (5 mice/group) on selected days post-tumor inoculation (PTI), compared to controls, and graphed.
[3] = Serum binding, 30K NMWL filtration, HPLC-UV; format: in vitro ADME; conditions: 50 μM compound in serum, n=3
Experimental: Serum Binding. Serum binding of Folate-DAVLBH conjugates containing hydrophilic spacer linkers compared to Comparative Example EC 145 lacking a hydrophilic spacer linker 50 μM compound in serum with 30K NMWL filtration and evaluation by HPLC-UV detection (n=3).

in vivo = assay: in vivo; design: species or system mice; conditions: for MTD: mouse, in vivo, read-out: Single Dose MTDapp
[4] = Multiple dose MTD, i.v. TIW for 1 week; conditions: mouse, in vivo, iv, Balb/c mice
Experimental: EC0436 and Comparative Example EC0305 were also administered i.v. to Balb/c mice TIW for 1 week. The resulting MTD for the multiple dose was EC0305 ([…]) and EC0436 ([…]).

[5] = Hepatobiliary excretion (bile clearance) in bile duct cannulated rats; conditions: 2 μmol/kg i.v. bolus
Text: Comparison of Bile Clearance (% ID) of unconjugated drug, drug conjugate lacking a hydrophilic spacer linker, and conjugates described herein.

[6] = Cell viability, XTT, 5 h pulse/72 h chase (FIG. 16); format: cell-based
20S proteosome = assay: Inhibition of LPS stimulated proteosome activity in RAW 264.7 cells (FIG. 18); format: cell-based; conditions: 5 h pulse/24 h chase, LPS 100 ng/mL
RAW264.7 cells = format: cell-based; conditions: for RAW264.7 Cells Competable with xs folate: excess folic acid
Experimental: In Vitro Concentration-Dependent Cytotoxic Activity. Cells were heavily seeded in 24-well Falcon plates and allowed to form nearly confluent monolayers overnight. Thirty minutes prior to the addition of test article, spent medium was aspirated from all wells and replaced with fresh folate-free RPMI (FFRPMI). […] Treated cells were pulsed for 2 h at 37° C., rinsed 4 times with 0.5 mL of media, and then chased in 1 mL of fresh media up to 70 h. Spent media was aspirated from all wells and replaced with fresh media containing 5 μCi/mL ^3H-thymidine. Following a further 2 h 37° C. incubation, cells were washed 3 times with 0.5 mL of PBS and then treated with 0.5 mL of ice-cold 5% trichloroacetic acid per well. After 15 min, the trichloroacetic acid was aspirated and the cell material solubilized by the addition of 0.5 mL of 0.25 N sodium hydroxide for 15 min. Four hundred and fifty μL of each solubilized sample were transferred to scintillation vials containing 3 mL of Ecolume scintillation cocktail and then counted in a liquid scintillation counter. Final tabulated results were expressed as the percentage of ^3H-thymidine incorporation relative to untreated controls.
As shown in the figures herein, dose-dependent cytotoxicity was measurable, and in most cases, the IC50 values (concentration of drug conjugate required to reduce ^3H-thymidine incorporation into newly synthesized DNA by 50%) were in the low nanomolar range. […] The following table illustrated data for selected compounds against KB cells and against RAW264.7 cells

[7] = Cytotoxicity of bortezomib versus EC0501 (FIG. 14); format: cell-based
[8] = FIG. 3B, M109 tumors, TIW 3 μmol/kg, 3 wks
[9] = mice, single dose, EC0234 dose limited by solubility
[10] = FIG. 6B, 7B, 8B, M109 tumors, Balb/c mice, 2 μmol/kg TIW two weeks

Compound: CC[C@]1(O)C[C@H]2CN(CCc3c([nH]c4ccccc34)[C@@](C(=O)OC)(c3cc4c(cc3OC)N(C)[C@H]3[C@@](O)(C(=O)NNC(=O)OCCSSC[C@H](NC(=O)[C@H](CC(=O)O)NC(=O)[C@H](CC(=O)O)NC(=O)[C@H](CCCNC(=N)N)NC(=O)[C@H](CC(=O)O)NC(=O)CC[C@H](NC(=O)c5ccc(NCc6cnc7nc(N)[nH]c(=O)c7n6)cc5)C(=O)O)C(=O)O)[C@H](O)[C@]5(CC)C=CCN6CC[C@]43[C@@H]65)C2)C1 [EC145, reference compound]
- AUC (DAVLBH biliary excretion) [1]: 1092
- percent of total dose in the bile (total DAVLBH biliary excretion) [1]: 8.7%
- gross toxicity (percentage body weight change) ([2]; mouse, in vivo): no gross toxicity was observed
- fraction unbound at 50 μM ([3]; human, read-out: Human Serum (% Bound) (converted)): 0.457
- fraction unbound at 50 μM ([3]; mouse, read-out: Mouse Serum (% Bound) (converted)): 0.327

Compound: CC[C@]1(O)C[C@H]2CN(CCc3c([nH]c4ccccc34)[C@@](C(=O)OC)(c3cc4c(cc3OC)N(C)[C@H]3[C@@](O)(C(=O)NNC(=O)OCCSSC[C@H](NC(=O)[C@@H](NC(=O)CC[C@H](NC(=O)c5ccc(NCc6cnc7nc(N)[nH]c(=O)c7n6)cc5)C(=O)O)[C@@H](O)[C@H](O)[C@H](O)CO)C(=O)O)[C@H](O)[C@]5(CC)C=CCN6CC[C@]43[C@@H]65)C2)C1 [EC0234, Mono-Saccharo-Folate Vinblastine Conjugate]
- gross toxicity (percentage body weight change) [2, 8]: no gross toxicity was observed
- MTD (in vivo; [9]): 12 µmol/kg

Compound: CC[C@]1(O)C[C@H]2CN(CCc3c([nH]c4ccccc34)[C@@](C(=O)OC)(c3cc4c(cc3OC)N(C)[C@H]3[C@@](O)(C(=O)NNC(=O)OCCSSC[C@H](NC(=O)[C@@H](NC(=O)[C@H](CC(=O)O)NC(=O)[C@@H](NC(=O)CC[C@H](NC(=O)c5ccc(NCc6cnc7nc(N)[nH]c(=O)c7n6)cc5)C(=O)O)[C@@H](O)[C@H](O)[C@H](O)CO)[C@@H](O)[C@H](O)[C@H](O)CO)C(=O)O)[C@H](O)[C@]5(CC)C=CCN6CC[C@]43[C@@H]65)C2)C1 [EC0246, Bis-Saccharo-Folate Vinblastine Conjugate]
- gross toxicity (percentage body weight change) [2, 8]: no gross toxicity was observed
- mice died (in vivo; at 20 μmol/kg single dose): **⅓ mice died at 20 μmol/kg.
- Single Dose MTDapp (in vivo; [9]): <20** μmol/kg

Compound: CC[C@]1(O)C[C@H]2CN(CCc3c([nH]c4ccccc34)[C@@](C(=O)OC)(c3cc4c(cc3OC)N(C)[C@H]3[C@@](O)(C(=O)NNC(=O)OCCSSC[C@H](NC(=O)[C@@H](NC(=O)[C@H](CC(=O)O)NC(=O)[C@@H](NC(=O)[C@H](CC(=O)O)NC(=O)[C@@H](NC(=O)CC[C@H](NC(=O)c5ccc(NCc6cnc7nc(N)[nH]c(=O)c7n6)cc5)C(=O)O)[C@@H](O)[C@H](O)[C@H](O)CO)[C@@H](O)[C@H](O)[C@H](O)CO)[C@@H](O)[C@H](O)[C@H](O)CO)C(=O)O)[C@H](O)[C@]5(CC)C=CCN6CC[C@]43[C@@H]65)C2)C1 [EC0263, Tris-Saccharo-Bis-Asp-Folate Vinblastine Conjugate]
- MTD (in vivo; [9]): > 20 µmol/kg

Compound: CCCC(=O)OCN(C(=O)[C@@H](NC[C@H]1CCCCN1C)C(C)CC)[C@H](C[C@@H](OC(C)=O)c1nc(C(=O)N[C@@H](Cc2ccc(O)cc2)C[C@H](C)C(=O)NNC(=O)OCCSSC[C@H](NC(=O)[C@H](CC(=O)O)NC(=O)[C@H](CCCNC(=N)N)NC(=O)[C@H](CC(=O)O)NC(=O)CC[C@H](NC(=O)c2ccc(NCc3cnc4nc(N)[nH]c(=O)c4n3)cc2)C(=O)O)C(=O)O)cs1)C(C)C (some centres unmarked) [EC0305, reference compound]
- MTD at 1 week [4]: 6 µmol/kg
- gross toxicity (percentage body weight change) [2, 10]: no gross toxicity was observed

Compound: CC[C@]1(O)CC2CN(CCc3c([nH]c4ccccc34)[C@@](C(=O)OC)(c3cc4c(cc3OC)N(C)C3C45CCN4CC=C[C@](CC)(C45)[C@@H](O)[C@]3(O)C(=O)NNC(=O)OCCSSC[C@H](NC(=O)C[C@H](NC(=O)C[C@H](NC(=O)CN3CCN(CCNC(=O)C[C@H](NC(=O)CC[C@H](NC(=O)c4ccc(NCc5cnc6nc(N)[nH]c(=O)c6n5)cc4)C(=O)O)C(=O)O)CC3)C(=O)O)C(=O)O)C(=O)O)C2)C1 (some centres unmarked) [EC0429]
- percent of total dose in the bile (total DAVLBH biliary excretion) [5]: 8.6%
- gross toxicity (percentage body weight change) [2, 10]: no gross toxicity was observed

Compound: CC(C)C[C@H](NC(=O)[C@H](Cc1ccccc1)NC(=O)c1cnc(CSSC[C@H](NC(=O)[C@H](CCC(=O)NC[C@H](O)[C@@H](O)[C@H](O)[C@H](O)CO)NC(=O)[C@H](CCC(=O)O)NC(=O)[C@H](CCC(=O)NC[C@H](O)[C@@H](O)[C@H](O)[C@H](O)CO)NC(=O)[C@H](CCC(=O)O)NC(=O)[C@H](CCC(=O)NC[C@H](O)[C@@H](O)[C@H](O)[C@H](O)CO)NC(=O)CC[C@H](NC(=O)c2ccc(NCc3cnc4nc(N)[nH]c(=O)c4n3)cc2)C(=O)O)C(=O)O)cn1)B(O)O [EC0525]
- IC50 [6]: 46 nM
- IC50 (20S proteosome): ~30 nM
- RAW264.7 Cells Competable with xs folate (RAW264.7 cells): Yes

Compound: CC(C)C[C@H](NC(=O)[C@H](Cc1ccccc1)NC(=O)c1cnc(CSSC[C@H](NC(=O)[C@H](CCC(=O)NC[C@H](O)[C@@H](O)[C@H](O)[C@H](O)CO)NC(=O)[C@H](CCC(=O)O)NC(=O)[C@H](CSSCc2cnc(C(=O)N[C@@H](Cc3ccccc3)C(=O)N[C@@H](CC(C)C)B(O)O)cn2)NC(=O)[C@H](CCC(=O)NC[C@H](O)[C@@H](O)[C@H](O)[C@H](O)CO)NC(=O)[C@H](CCC(=O)O)NC(=O)[C@H](CCC(=O)NC[C@H](O)[C@@H](O)[C@H](O)[C@H](O)CO)NC(=O)CC[C@H](NC(=O)c2ccc(NCc3cnc4nc(N)[nH]c(=O)c4n3)cc2)C(=O)O)C(=O)O)cn1)B(O)O [EC0595]
- IC50 [6]: 13 nM
- IC50 (20S proteosome): ~30 nM
- IC50 (RAW264.7 cells): 4 nM
- RAW264.7 Cells Competable with xs folate (RAW264.7 cells): Yes

Compound: CC(C)C[C@H](NC(=O)[C@H](Cc1ccccc1)NC(=O)c1cnccn1)B(O)O [bortezomib]
- IC50 [7]: 20 nM
